Our source for the GTP hydrolysis values is US20020076785.

For data set [1], the target named is recombinant C. elegans Rho (UniProt Q22038).
For data set [2], the target named is recombinant C. elegans Cdc42 (UniProt Q05062).
Data set [3] addresses recombinant C. elegans Rac (UniProt Q03206).

“Also recorded” adds a separate entry of the source.

Sequence of recombinant C. elegans Rho (Q22038 whole entry): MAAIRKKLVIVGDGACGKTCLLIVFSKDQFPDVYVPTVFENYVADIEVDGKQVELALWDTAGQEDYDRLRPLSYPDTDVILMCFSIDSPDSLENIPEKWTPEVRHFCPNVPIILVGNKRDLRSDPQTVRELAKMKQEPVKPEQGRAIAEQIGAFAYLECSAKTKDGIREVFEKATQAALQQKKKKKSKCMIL
Sequence of recombinant C. elegans Cdc42 (Q05062 whole entry): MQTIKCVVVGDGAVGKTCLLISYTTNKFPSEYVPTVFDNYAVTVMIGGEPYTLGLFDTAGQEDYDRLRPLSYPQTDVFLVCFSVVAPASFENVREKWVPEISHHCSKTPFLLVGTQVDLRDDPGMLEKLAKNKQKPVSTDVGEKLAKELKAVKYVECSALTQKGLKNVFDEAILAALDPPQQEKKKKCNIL

As for “GST-CYK-4-GAP (GST fused to the GAP domain of CYK-4, amino acids 407-681)”, the GTP hydrolysis entry in data set [1] was “The GAP domain of CYK-4 promotes GTP hydrolysis by all three tested GTPases; also recorded: the CYK-4 GAP domain is more active towards Rac and Cdc42 than towards Rho”; in data set [2] it was “The GAP domain of CYK-4 promotes GTP hydrolysis by all three tested GTPases; also recorded: the CYK-4 GAP domain is more active towards Rac and Cdc42 than towards Rho”; in data set [3], “The GAP domain of CYK-4 promotes GTP hydrolysis by all three tested GTPases; also recorded: the CYK-4 GAP domain is more active towards Rac and Cdc42 than towards Rho”.
